Assay: yeast display, Sf9 membrane polyspecificity reagent, FACS + sequencing; frameworks hold sequencing errors
In short: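 Sorting gates, low and high (top ~1%), were placed on anti-HA fluorescence to track expression and on streptavidin fluorescence to track reagent binding. A clone's polyreactivity label is taken from the gate it came out of. The reagent was 10% biotinylated, detergent-solubilized Sf9 membrane, applied for 1 hour at 4 °C to galactose-induced yeast display cells.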

Sequence | polyreactivity (PSR sort gate)
QVQLVESGGGLVQAGGSLRLSCAASGITFATNTMGWYRQAPGKERELVASINYRGGSTYYADSVKGRFTISRDNAKNTVYLQMNSLKPEDTAVYYCNADIYLEYDYWGQGTQVTVSS | low polyreactivity
QVQLVESGGGLVQAGGSLRLSCAASGITFAVYTMGWYSQAPGKERELVAAITGSGGRTYYADSVKGRFTISRDNAKNTVYLQMNSLKPEDTAVYYCNAVQRSSRQTFEYWGQGTQVTVSS | low polyreactivity
QVQLVESGGGLVQAGGSLRLSCAASGITFAYYGMGWYRQAPGKERELVAAISWTGSSTYYADSVKGRFTISRDNAQNTVYLQMNSLKPEDTAVYYCAARQRYRYDYWGQGTQVTVSS | high polyreactivity
QVQLVESGGGLVQAGGSLRLSCAASGITFDDNAMAWYRQAPGKERELVATISDGGRTYYADSVKGRFTISRDNAKNTVFLQMNILKPEDTGVYYCAAGYPYYHVYGYGYWGQGTLVTVSS | low polyreactivity
QVQLVESGGGLVQAGGSLRLSCAASGITFDEYAMGWYRQAPGKERELVAAISWRGAITYYADSVKGRFTISRDNAKNTVYLQMNSLKPEDTAGYYCNADRAYTYVRYYITQDFGYWGQGTQVTVSS | high polyreactivity
QVQLVESGGGLVQAGGSLRLSCAASGITFDEYAMGWYRQAPGKERELVASISAGSTYYADSVKGRFTISRDNAKNTVYLQMNSLKPEDTAVYYCAVVVDYDAYRYWGYDYWGQGTQVTVSS | high polyreactivity
QVQLVESGGGLVQAGGSLRLSCAASGITFDGYAMGWYRQAPGKERELVAAISISGASTYYADSVKGRFTISRDNAKNTVYLQKNSLKPEDTAVYYCAASSWINQYPGDYWGQGTQVTVSS | high polyreactivity
QVQLVESGGGLVQAGGSLRLSCAASGITFDGYAMGWYRQAPGKERELVAAISNTGDTTYYADSVKGRFTISRDNAKNTVYLQMNSLKPEDTAVYYCAGQRYYSYEYWGQGTQVTVSS | high polyreactivity
QVQLVESGGGLVQAGGSLRLSCAASGITFDINAMGWYRQAPGKERELVAAISKSGRTYYADSVKGRFTISRDNAKNTVYLQMNSLKPEDTAVYYCNKVPYPSNDYWGQGTQVTVSS | high polyreactivity
QVQLVESGGGLVQAGGSLRLSCAASGITFDKNTMGWYRQAPGKERELVAAISARGGSTYYADSVKGRFTISRDNAKNTVYLQMNSLKPEDTAVYSCAADYSARYGYWGQGTQVNVSS | high polyreactivity
QVQLVESGGGLVQAGGSLRLSCAASGITFDKYAMGWNRQAPGKERELDAAISGSDGSTYYADSVKGRFTISRDNAKNTVYLQMNILKPEDTAVYYCAAESEYAGTYEYDYWGQGTQVTVSS | low polyreactivity
QVQLVESGGGLVQAGGSLRLSCAASGITFDQNAMGWYRQAPGKEREFVAAISVSGGRTYYADSVKGRFTISRDNAKNTVYLQMNSLKPEDTAVYYCAAYGGTRYYYSYYYWGQGTQVTVSS | high polyreactivity
QVQLVESGGGLVQAGGSLRLSCAASGITFDRNVMGWYRQAPGTERELVAAISKSGGRTYYADSVKGRFRISRDNAKNTDYLQLNSLKPEDTAVYYCNADVYSRKSLHQYEYWGQGTQVTVSS | high polyreactivity
QVQLVESGGGLVQAGGSLRLSCAASGITFDWNAMGWYRQAPGKEREFVASISRGSGGTYYADSVKGRFTISRDNAKNTVYLQMNSLKPEDTAVYYCAAAVGNTDREYDYWGQGTQVTVSS | low polyreactivity
QVQLVESGGGLVQAGGSLRLSCAASGITFDYNAMGWYRPAPGKERELVASITTNDDSTYYADSVKGRFTISRDNAKNTVYLQINSLKPEDTAVYSCNADQITGQFDYWGQGTQVTVSS | low polyreactivity
QVQLVESGGGLVQAGGSLRLSCAASGITFDYNAMGWYRQAPGKERELVASINSGGNTNYADSVKGRFTISRDNAKNTVYLQMNSLKPEDTAVYYCATVSYYLYTRYDYWGQGTQVTVSS | low polyreactivity

Sequence | polyreactivity (PSR sort gate)
QVQLVESGGGLVQAGGSLRLSCAASGITFDYYAMGWYRQAPGKERELVASISSDSSTYYADSVKGRFTISRDNAKNTVYLQMNSLKPEDTAVYYCNAGDSEYTYYGYYAFDYWGQGSQVTVSS | low polyreactivity
QVQLVESGGGLVQAGGSLRLSCAASGITFDYYAMGWYRQEPGKERELVAAISSAGRTYYADSVKGRFTISRDNAKNTVYLQMNSLKPEDTAVYYCAATAFSYYPYHGDYWGQGTQVTVSS | high polyreactivity
QVQLVESGGGLVQAGGSLRLSCAASGITFDYYDMGWYRTAPGKERELVAAISSDGSTYYADSVKGRFTISRDNAKNTVYLQMNSLKPEDTAVYYCNAVAIEPYFYVVYDIFDYWGQGTQVTVSS | low polyreactivity
QVQLVESGGGLVQAGGSLRLSCAASGITFEGYAMGWYRQAPGKERELVAAIRSSGTSTYYADSVKGRFTISRDNAMNTVYLQMNSLKPEDYAVYYCNRARSSSRYDYWGQGTQGTVSS | low polyreactivity
QVQLVESGGGLVQAGGSLRLSCAASGITFERYAMGWYRQAPGKERELVAAITYRGGSTYYADSVKGRFTISRDNAKNTVYLQMNSLKPEDTAVYYCNRARLRGAYIYWGQGTQVTVSS | high polyreactivity
QVQLVESGGGLVQAGGSLRLSCAASGITFETYALGWSRQAPGKERELVASIDYDGTSTYYADSVKGRFTISRDNAKNTVYLQMNSLKPEDTAVYYCNARDLDNYGWDDEEYDYWGQGTQVSVSS | low polyreactivity
QVQLVESGGGLVQAGGSLRLSCAASGITFEWYDMGWYRQAPGKEKDLVAAISQSGASTYYADSVKGRFTISRDNAKNTVYLQMNSLKPEETAVYYCATRARYVGGYKYNYWGQGTQVTVSS | high polyreactivity
QVQLVESGGGLVQAGGSLRLSCAASGITFEYYAMGWYRPAPGKERELVAAIDTGGSTNYADSVKGRFTISRDNAKNTVYLQMNSLKPEDTAVYSCAADWSWWDGEDDHFEYDYWGQGTQVTVSS | low polyreactivity
QVQLVESGGGLVQAGGSLRLSCAASGITFFAYTMGWYRQAHGKERELVASISSSGGSTNYADSVKGRFTISRDNAKNTVYLQMNSLKPEDTAVYYCAARQSLYRGGRWYDYWGQGTQVTVSS | high polyreactivity
QVQLVESGGGLVQAGGSLRLSCAASGITFFHYAMGWYRQAPGKERELVATISWRAGSTYADSVKGRFTISRDNAKNTVYLQMNSLKPEDTAVYYCNAVWTYHSGSGGYLFDYWGQGTQVTVSS | low polyreactivity
QVQLVESGGGLVQAGGSLRLSCAASGITFFPYAMGWYRQAPGKERELVASISDGGGTNYAASVKGRFTISRDNAKNTVYLQMNSLKPEDTAVYYCATDASTYAYYGGDYWGQGTQVTVSS | low polyreactivity
QVQLVESGGGLVQAGGSLRLSCAASGITFFVYAMGWYRQAPGKERELVAAISSTASTNYADSVKGRFTISRDNAKYTVYLQMNSRKPEDTAVYYCNAGVWSLGTYWQFDYWGQGTQVTVSS | high polyreactivity
QVQLVESGGGLVQAGGSLRLSCAASGITFFYYAMGWYRQAPGKERELVAAINWSGRTYYADSVKGRFTISRDNAKNTVYLQMNSLKPEDTAVSYCAAVTYGPGVSGMDYWGQGTQVTVSS | low polyreactivity
QVQLVESGGGLVQAGGSLRLSCAASGITFFYYAMGWYRQAPGKERELVAAISTSGGRTYYADSVKGRFTISRDNAKNTVYLQMNSLKPEDTAVYYCAARSRVPPAGPRYDYWGQGTQVTVSS | high polyreactivity
QVQLVESGGGLVQAGGSLRLSCAASGITFGANTMGWYRQAPGKERELVAAITISGGITHYADSVKGRFTISRDNAKNTVYLQMNSLKPEDTAVYYCAAGAYWRLYPYRQRNGGRMYYWGQGTQVTVSS | low polyreactivity
QVQLVESGGGLVQAGGSLRLSCAASGITFGAYAMGWDRQAPGKERELVASISSSGSTYADSVKGRFTISRDNAKTTVYLQMNSLKPEDTAVYYCNAVGFQANDYNYWRQGTQVTVSS | low polyreactivity

From the nanobody polyreactivity screen of Harvey et al. (2022)
